The text below walks through data of patent US20180155450A1 (Sanofi, published 2018).

In assay [1] the target is T1, recombinant human IL4 (human, UniProt P05112 25-153).
T1 construct: bought; also called Antigen1
T1 sequence (looked up): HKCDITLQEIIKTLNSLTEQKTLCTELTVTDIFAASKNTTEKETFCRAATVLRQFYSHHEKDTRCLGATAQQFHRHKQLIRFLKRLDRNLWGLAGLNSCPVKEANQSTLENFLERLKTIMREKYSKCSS
Description: SPR (Biacore 3000), captured CODV-Ig, antigen as analyte.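 Further: kd derived from kinetic fits in BIAevaluation 4.1, with signals referenced against a flow cell lacking captured antibody.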
Description: (§1) Kinetic binding analysis by Biacore was performed as follows. Surface plasmon resonance technology on a Biacore 3000 (GE Healthcare) was used for detailed kinetic characterization of purified antibodies. […] Chip surfaces were regenerated with 10 mM glycine pH 2.5. Kinetic parameters were analyzed and calculated in the BIAevaluation program package v4.1 using a flow cell without captured antibody as a reference.

Assay [2] concerns the target T2, recombinant human IL13 (human, UniProt P35225 35-146, limits assumed).
T2 construct: bought; also called Antigen2
The description is as above.
Description: as §1

T2 sequence (P35225 35-146 limits assumed): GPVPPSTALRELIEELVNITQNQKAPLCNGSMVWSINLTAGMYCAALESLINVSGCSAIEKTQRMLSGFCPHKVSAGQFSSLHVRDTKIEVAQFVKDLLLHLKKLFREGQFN

B1: CODV-Ig Batch ID 210 (IL4 × IL13 on HC; L1=7, L2=5, L3=2, L4=0) (bispecific antibody)
heavy: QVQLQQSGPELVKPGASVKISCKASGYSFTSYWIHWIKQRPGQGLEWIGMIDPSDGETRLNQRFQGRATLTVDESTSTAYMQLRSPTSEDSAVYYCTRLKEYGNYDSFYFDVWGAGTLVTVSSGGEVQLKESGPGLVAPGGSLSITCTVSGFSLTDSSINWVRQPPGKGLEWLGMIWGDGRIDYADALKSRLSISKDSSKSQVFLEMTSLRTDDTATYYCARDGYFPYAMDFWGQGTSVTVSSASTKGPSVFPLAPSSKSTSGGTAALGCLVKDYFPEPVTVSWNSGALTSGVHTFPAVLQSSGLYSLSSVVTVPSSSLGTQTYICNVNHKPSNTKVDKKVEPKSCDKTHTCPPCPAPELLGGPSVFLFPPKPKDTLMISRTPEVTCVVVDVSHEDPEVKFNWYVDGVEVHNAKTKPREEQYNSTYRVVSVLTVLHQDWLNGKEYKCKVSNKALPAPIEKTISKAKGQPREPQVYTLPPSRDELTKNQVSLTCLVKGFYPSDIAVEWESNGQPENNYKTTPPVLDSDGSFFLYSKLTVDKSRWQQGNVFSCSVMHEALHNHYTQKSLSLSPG
light: DIVLTQSPASLAVSLGQRATISCRASESVDSYGQSYMHWYQQKAGQPPKLLIYLASNLESGVPARFSGSGSRTDFTLTIDPVQAEDAATYYCQQNAEDSRTFGGGTKLEIKGGGGGGGDIQMTQSPASLSVSVGDTITLTCHASQNIDVWLSWFQQKPGNIPKLLIYKASNLHTGVPSRFSGSGSGTGFTLTISSLQPEDIATYYCQQAHSYPFTFGGGTKLEIKGGGGGRTVAAPSVFIFPPSDEQLKSGTASVVCLLNNFYPREAKVQWKVDNALQSGNSQESVTEQDSKDSTYSLSSTLTLSKADYEKHKVYACEVTHQGLSSPVTKSFNRGEC
notes: IgG1 CODV-Ig, heavy chain as template; L4 = 0 (no linker)
Turning to B1, the Kd in assay [1] stood at 4 pM.

B2: CODV-Ig Batch ID 216 (IL4 × IL13 on HC; L1=7, L2=5, L3=2, L4=2) (bispecific antibody)
chain 1: not shown
chain 2: DIVLTQSPASLAVSLGQRATISCRASESVDSYGQSYMHWYQQKAGQPPKLLIYLASNLESGVPARFSGSGSRTDFTLTIDPVQAEDAATYYCQQNAEDSRTFGGGTKLEIKGGGGGGGDIQMTQSPASLSVSVGDTITLTCHASQNIDVWLSWFQQKPGNIPKLLIYKASNLHTGVPSRFSGSGSGTGFTLTISSLQPEDIATYYCQQAHSYPFTFGGGTKLEIKGGGGGRTVAAPSVFIFPPSDEQLKSGTASVVCLLNNFYPREAKVQWKVDNALQSGNSQESVTEQDSKDSTYSLSSTLTLSKADYEKHKVYACEVTHQGLSSPVTKSFNRGEC
B2: the Kd in assay [1] amounted to 11 pM; in assay [2], 40 pM.

B3: CODV-Ig Batch ID 234 (IL4 × IL13 on HC; L1=7, L2=5, L3=5, L4=0) (bispecific antibody)
heavy: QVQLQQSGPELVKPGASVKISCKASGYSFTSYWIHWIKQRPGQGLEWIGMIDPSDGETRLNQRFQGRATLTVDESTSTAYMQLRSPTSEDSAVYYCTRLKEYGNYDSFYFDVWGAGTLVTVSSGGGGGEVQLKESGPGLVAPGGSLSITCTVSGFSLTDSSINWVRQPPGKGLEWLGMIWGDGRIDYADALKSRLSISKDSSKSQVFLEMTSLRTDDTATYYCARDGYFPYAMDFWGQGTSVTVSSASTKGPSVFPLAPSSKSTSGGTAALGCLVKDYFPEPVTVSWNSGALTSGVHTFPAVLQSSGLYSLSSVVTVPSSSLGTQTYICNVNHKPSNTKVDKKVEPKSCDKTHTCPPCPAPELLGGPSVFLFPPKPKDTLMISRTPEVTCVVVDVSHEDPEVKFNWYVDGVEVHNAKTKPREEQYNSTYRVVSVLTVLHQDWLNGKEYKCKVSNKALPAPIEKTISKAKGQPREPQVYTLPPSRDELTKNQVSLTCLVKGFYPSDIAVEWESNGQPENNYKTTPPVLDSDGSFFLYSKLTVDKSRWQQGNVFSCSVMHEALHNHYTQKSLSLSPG
light: DIVLTQSPASLAVSLGQRATISCRASESVDSYGQSYMHWYQQKAGQPPKLLIYLASNLESGVPARFSGSGSRTDFTLTIDPVQAEDAATYYCQQNAEDSRTFGGGTKLEIKGGGGGGGDIQMTQSPASLSVSVGDTITLTCHASQNIDVWLSWFQQKPGNIPKLLIYKASNLHTGVPSRFSGSGSGTGFTLTISSLQPEDIATYYCQQAHSYPFTFGGGTKLEIKGGGGGRTVAAPSVFIFPPSDEQLKSGTASVVCLLNNFYPREAKVQWKVDNALQSGNSQESVTEQDSKDSTYSLSSTLTLSKADYEKHKVYACEVTHQGLSSPVTKSFNRGEC
notes: as for B1
Take B3: the Kd in assay [1] was found to be 3 pM.

B4: CODV-Ig Batch ID 204 (IL4 × IL13 on HC; L1=7, L2=5, L3=1, L4=2) (bispecific antibody, IgG1)
heavy: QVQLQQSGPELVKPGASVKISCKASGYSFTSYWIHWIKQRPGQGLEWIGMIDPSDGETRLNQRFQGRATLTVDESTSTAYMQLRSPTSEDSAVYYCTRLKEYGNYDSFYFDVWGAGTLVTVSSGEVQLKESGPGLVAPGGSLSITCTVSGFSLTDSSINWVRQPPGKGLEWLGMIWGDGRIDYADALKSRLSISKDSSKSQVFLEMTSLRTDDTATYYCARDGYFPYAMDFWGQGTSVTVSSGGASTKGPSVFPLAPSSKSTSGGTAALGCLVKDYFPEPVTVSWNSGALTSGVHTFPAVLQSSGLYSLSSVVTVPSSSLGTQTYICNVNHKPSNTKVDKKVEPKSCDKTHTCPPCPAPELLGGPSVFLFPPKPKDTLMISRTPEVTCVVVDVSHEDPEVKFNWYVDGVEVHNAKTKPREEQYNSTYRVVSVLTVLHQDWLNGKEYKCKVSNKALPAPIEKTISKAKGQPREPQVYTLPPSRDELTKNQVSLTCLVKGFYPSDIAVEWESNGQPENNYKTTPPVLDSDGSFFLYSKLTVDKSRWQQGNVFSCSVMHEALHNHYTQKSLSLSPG
light: DIVLTQSPASLAVSLGQRATISCRASESVDSYGQSYMHWYQQKAGQPPKLLIYLASNLESGVPARFSGSGSRTDFTLTIDPVQAEDAATYYCQQNAEDSRTFGGGTKLEIKGGGGGGGDIQMTQSPASLSVSVGDTITLTCHASQNIDVWLSWFQQKPGNIPKLLIYKASNLHTGVPSRFSGSGSGTGFTLTISSLQPEDIATYYCQQAHSYPFTFGGGTKLEIKGGGGGRTVAAPSVFIFPPSDEQLKSGTASVVCLLNNFYPREAKVQWKVDNALQSGNSQESVTEQDSKDSTYSLSSTLTLSKADYEKHKVYACEVTHQGLSSPVTKSFNRGEC
notes: IgG1 CODV-Ig, heavy chain as template
B4: the Kd in assay [1] came out at 3 pM.

B5: CODV-Ig Batch ID 219 (IL4 × IL13 on HC; L1=3, L2=6, L3=3, L4=0) (bispecific antibody)
chain 1: not shown
chain 2: DIVLTQSPASLAVSLGQRATISCRASESVDSYGQSYMHWYQQKAGQPPKLLIYLASNLESGVPARFSGSGSRTDFTLTIDPVQAEDAATYYCQQNAEDSRTFGGGTKLEIKGGGDIQMTQSPASLSVSVGDTITLTCHASQNIDVWLSWFQQKPGNIPKLLIYKASNLHTGVPSRFSGSGSGTGFTLTISSLQPEDIATYYCQQAHSYPFTFGGGTKLEIKGGGGGGRTVAAPSVFIFPPSDEQLKSGTASVVCLLNNFYPREAKVQWKVDNALQSGNSQESVTEQDSKDSTYSLSSTLTLSKADYEKHKVYACEVTHQGLSSPVTKSFNRGEC
For B5, the Kd amounted to 8 pM in assay [1] and 71 pM in assay [2].

B6: CODV-Ig Batch ID 225 (IL4 × IL13 on HC; L1=3, L2=6, L3=3, L4=2) (bispecific antibody)
chain 1: not shown
chain 2: DIVLTQSPASLAVSLGQRATISCRASESVDSYGQSYMHWYQQKAGQPPKLLIYLASNLESGVPARFSGSGSRTDFTLTIDPVQAEDAATYYCQQNAEDSRTFGGGTKLEIKGGGDIQMTQSPASLSVSVGDTITLTCHASQNIDVWLSWFQQKPGNIPKLLIYKASNLHTGVPSRFSGSGSGTGFTLTISSLQPEDIATYYCQQAHSYPFTFGGGTKLEIKGGGGGGRTVAAPSVFIFPPSDEQLKSGTASVVCLLNNFYPREAKVQWKVDNALQSGNSQESVTEQDSKDSTYSLSSTLTLSKADYEKHKVYACEVTHQGLSSPVTKSFNRGEC
On to B6, for which the Kd in assay [1] was determined as 6 pM; in assay [2], 68 pM.

B7: CODV-Ig Batch ID 209 (IL4 × IL13 on HC; L1=7, L2=3, L3=2, L4=0) (bispecific antibody)
chain 1: not shown
chain 2: DIVLTQSPASLAVSLGQRATISCRASESVDSYGQSYMHWYQQKAGQPPKLLIYLASNLESGVPARFSGSGSRTDFTLTIDPVQAEDAATYYCQQNAEDSRTFGGGTKLEIKGGGGGGGDIQMTQSPASLSVSVGDTITLTCHASQNIDVWLSWFQQKPGNIPKLLIYKASNLHTGVPSRFSGSGSGTGFTLTISSLQPEDIATYYCQQAHSYPFTFGGGTKLEIKGGGRTVAAPSVFIFPPSDEQLKSGTASVVCLLNNFYPREAKVQWKVDNALQSGNSQESVTEQDSKDSTYSLSSTLTLSKADYEKHKVYACEVTHQGLSSPVTKSFNRGEC
Take B7: the Kd in assay [1] came to 5 pM; in assay [2], 47 pM.

B8: CODV-Ig Batch ID 215 (IL4 × IL13 on HC; L1=7, L2=3, L3=2, L4=2) (bispecific antibody)
chain 1: not shown
chain 2: DIVLTQSPASLAVSLGQRATISCRASESVDSYGQSYMHWYQQKAGQPPKLLIYLASNLESGVPARFSGSGSRTDFTLTIDPVQAEDAATYYCQQNAEDSRTFGGGTKLEIKGGGGGGGDIQMTQSPASLSVSVGDTITLTCHASQNIDVWLSWFQQKPGNIPKLLIYKASNLHTGVPSRFSGSGSGTGFTLTISSLQPEDIATYYCQQAHSYPFTFGGGTKLEIKGGGRTVAAPSVFIFPPSDEQLKSGTASVVCLLNNFYPREAKVQWKVDNALQSGNSQESVTEQDSKDSTYSLSSTLTLSKADYEKHKVYACEVTHQGLSSPVTKSFNRGEC
With B8, the values for the Kd in assay [1] and in assay [2] were 4 pM and 50 pM, respectively.

B9: CODV-Ig Batch ID 208 (IL4 × IL13 on HC; L1=5, L2=5, L3=2, L4=0) (bispecific antibody)
heavy: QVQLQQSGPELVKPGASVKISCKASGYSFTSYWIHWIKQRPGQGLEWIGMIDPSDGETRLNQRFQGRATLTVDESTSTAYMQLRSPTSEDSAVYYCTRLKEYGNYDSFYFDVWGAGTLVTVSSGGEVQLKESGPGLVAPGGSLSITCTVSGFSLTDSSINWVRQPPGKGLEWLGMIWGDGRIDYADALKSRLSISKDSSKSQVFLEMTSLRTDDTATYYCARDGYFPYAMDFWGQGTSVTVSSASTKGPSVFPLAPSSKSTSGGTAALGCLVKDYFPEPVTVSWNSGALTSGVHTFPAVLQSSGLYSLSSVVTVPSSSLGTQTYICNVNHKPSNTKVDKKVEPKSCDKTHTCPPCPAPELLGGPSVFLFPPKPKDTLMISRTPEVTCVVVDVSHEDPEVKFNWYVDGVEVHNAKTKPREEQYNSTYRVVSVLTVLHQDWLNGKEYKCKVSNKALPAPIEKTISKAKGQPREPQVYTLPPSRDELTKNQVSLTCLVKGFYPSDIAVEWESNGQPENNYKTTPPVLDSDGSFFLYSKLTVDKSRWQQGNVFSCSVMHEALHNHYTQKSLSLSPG
light: DIVLTQSPASLAVSLGQRATISCRASESVDSYGQSYMHWYQQKAGQPPKLLIYLASNLESGVPARFSGSGSRTDFTLTIDPVQAEDAATYYCQQNAEDSRTFGGGTKLEIKGGGGGDIQMTQSPASLSVSVGDTITLTCHASQNIDVWLSWFQQKPGNIPKLLIYKASNLHTGVPSRFSGSGSGTGFTLTISSLQPEDIATYYCQQAHSYPFTFGGGTKLEIKGGGGGRTVAAPSVFIFPPSDEQLKSGTASVVCLLNNFYPREAKVQWKVDNALQSGNSQESVTEQDSKDSTYSLSSTLTLSKADYEKHKVYACEVTHQGLSSPVTKSFNRGEC
notes: as for B1
Regarding B9, the Kd in assay [1] was 10 pM.

B10: CODV-Ig Batch ID 232 (IL4 × IL13 on HC; L1=5, L2=5, L3=5, L4=0) (bispecific antibody)
heavy: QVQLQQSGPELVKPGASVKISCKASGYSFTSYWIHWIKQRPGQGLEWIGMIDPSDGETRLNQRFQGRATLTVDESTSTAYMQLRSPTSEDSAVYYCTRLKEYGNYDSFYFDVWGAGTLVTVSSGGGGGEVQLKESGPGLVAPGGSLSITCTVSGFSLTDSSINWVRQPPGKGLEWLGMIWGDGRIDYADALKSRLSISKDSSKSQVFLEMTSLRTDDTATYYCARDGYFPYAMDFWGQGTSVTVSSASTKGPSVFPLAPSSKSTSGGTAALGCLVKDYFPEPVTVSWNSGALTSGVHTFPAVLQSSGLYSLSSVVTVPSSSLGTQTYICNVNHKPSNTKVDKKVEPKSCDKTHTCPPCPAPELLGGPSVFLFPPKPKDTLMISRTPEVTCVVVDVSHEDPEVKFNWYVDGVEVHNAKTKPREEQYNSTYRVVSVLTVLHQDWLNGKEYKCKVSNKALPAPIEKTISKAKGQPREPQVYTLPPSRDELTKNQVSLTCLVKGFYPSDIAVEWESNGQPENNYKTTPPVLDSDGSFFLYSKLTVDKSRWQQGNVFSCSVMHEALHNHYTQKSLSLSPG
light: DIVLTQSPASLAVSLGQRATISCRASESVDSYGQSYMHWYQQKAGQPPKLLIYLASNLESGVPARFSGSGSRTDFTLTIDPVQAEDAATYYCQQNAEDSRTFGGGTKLEIKGGGGGDIQMTQSPASLSVSVGDTITLTCHASQNIDVWLSWFQQKPGNIPKLLIYKASNLHTGVPSRFSGSGSGTGFTLTISSLQPEDIATYYCQQAHSYPFTFGGGTKLEIKGGGGGRTVAAPSVFIFPPSDEQLKSGTASVVCLLNNFYPREAKVQWKVDNALQSGNSQESVTEQDSKDSTYSLSSTLTLSKADYEKHKVYACEVTHQGLSSPVTKSFNRGEC
notes: as for B1
On to B10, for which, in assay [1], the Kd was found to be 8 pM.

B11: CODV-Ig Batch ID 214 (IL4 × IL13 on HC; L1=5, L2=5, L3=2, L4=2) (bispecific antibody)
chain 1: not shown
chain 2: DIVLTQSPASLAVSLGQRATISCRASESVDSYGQSYMHWYQQKAGQPPKLLIYLASNLESGVPARFSGSGSRTDFTLTIDPVQAEDAATYYCQQNAEDSRTFGGGTKLEIKGGGGGDIQMTQSPASLSVSVGDTITLTCHASQNIDVWLSWFQQKPGNIPKLLIYKASNLHTGVPSRFSGSGSGTGFTLTISSLQPEDIATYYCQQAHSYPFTFGGGTKLEIKGGGGGRTVAAPSVFIFPPSDEQLKSGTASVVCLLNNFYPREAKVQWKVDNALQSGNSQESVTEQDSKDSTYSLSSTLTLSKADYEKHKVYACEVTHQGLSSPVTKSFNRGEC
With B11, the Kd was determined as 10 pM in assay [1] and 53 pM in assay [2].

B12: CODV-Ig Batch ID 222 (IL4 × IL13 on HC; L1=6, L2=6, L3=3, L4=0) (bispecific antibody)
chain 1: not shown
chain 2: DIVLTQSPASLAVSLGQRATISCRASESVDSYGQSYMHWYQQKAGQPPKLLIYLASNLESGVPARFSGSGSRTDFTLTIDPVQAEDAATYYCQQNAEDSRTFGGGTKLEIKGGGGGGDIQMTQSPASLSVSVGDTITLTCHASQNIDVWLSWFQQKPGNIPKLLIYKASNLHTGVPSRFSGSGSGTGFTLTISSLQPEDIATYYCQQAHSYPFTFGGGTKLEIKGGGGGGRTVAAPSVFIFPPSDEQLKSGTASVVCLLNNFYPREAKVQWKVDNALQSGNSQESVTEQDSKDSTYSLSSTLTLSKADYEKHKVYACEVTHQGLSSPVTKSFNRGEC
Take B12: the Kd in assay [1] came to 7 pM; in assay [2], 53 pM.

B13: CODV-Ig Batch ID 228 (IL4 × IL13 on HC; L1=6, L2=6, L3=3, L4=2) (bispecific antibody)
chain 1: not shown
chain 2: DIVLTQSPASLAVSLGQRATISCRASESVDSYGQSYMHWYQQKAGQPPKLLIYLASNLESGVPARFSGSGSRTDFTLTIDPVQAEDAATYYCQQNAEDSRTFGGGTKLEIKGGGGGGDIQMTQSPASLSVSVGDTITLTCHASQNIDVWLSWFQQKPGNIPKLLIYKASNLHTGVPSRFSGSGSGTGFTLTISSLQPEDIATYYCQQAHSYPFTFGGGTKLEIKGGGGGGRTVAAPSVFIFPPSDEQLKSGTASVVCLLNNFYPREAKVQWKVDNALQSGNSQESVTEQDSKDSTYSLSSTLTLSKADYEKHKVYACEVTHQGLSSPVTKSFNRGEC
Consider B13, for which the Kd came out at 7 pM in assay [1] and 44 pM in assay [2].

B14: CODV-Ig Batch ID 207 (IL4 × IL13 on HC; L1=5, L2=3, L3=2, L4=0) (bispecific antibody)
chain 1: not shown
chain 2: DIVLTQSPASLAVSLGQRATISCRASESVDSYGQSYMHWYQQKAGQPPKLLIYLASNLESGVPARFSGSGSRTDFTLTIDPVQAEDAATYYCQQNAEDSRTFGGGTKLEIKGGGGGDIQMTQSPASLSVSVGDTITLTCHASQNIDVWLSWFQQKPGNIPKLLIYKASNLHTGVPSRFSGSGSGTGFTLTISSLQPEDIATYYCQQAHSYPFTFGGGTKLEIKGGGRTVAAPSVFIFPPSDEQLKSGTASVVCLLNNFYPREAKVQWKVDNALQSGNSQESVTEQDSKDSTYSLSSTLTLSKADYEKHKVYACEVTHQGLSSPVTKSFNRGEC
Regarding B14, the Kd in assay [1] was determined as 3 pM; in assay [2], 33 pM.

B15: CODV-Ig Batch ID 213 (IL4 × IL13 on HC; L1=5, L2=3, L3=2, L4=2) (bispecific antibody)
chain 1: not shown
chain 2: DIVLTQSPASLAVSLGQRATISCRASESVDSYGQSYMHWYQQKAGQPPKLLIYLASNLESGVPARFSGSGSRTDFTLTIDPVQAEDAATYYCQQNAEDSRTFGGGTKLEIKGGGGGDIQMTQSPASLSVSVGDTITLTCHASQNIDVWLSWFQQKPGNIPKLLIYKASNLHTGVPSRFSGSGSGTGFTLTISSLQPEDIATYYCQQAHSYPFTFGGGTKLEIKGGGRTVAAPSVFIFPPSDEQLKSGTASVVCLLNNFYPREAKVQWKVDNALQSGNSQESVTEQDSKDSTYSLSSTLTLSKADYEKHKVYACEVTHQGLSSPVTKSFNRGEC
With B15, the Kd in assay [1] came out at 5 pM; in assay [2], 27 pM.
